Experimental data published in the supplement of paper PMC9233669.
Variants at the floor of the assay were thinned out.

Assays:
[1] = tested on: biotinyl-Val-oxazolone; test: self-aminoacylation, catalytic enhancement (BVO) (fold over background); higher = more active; k-Seq, kA / k0A0; sequences stand for … in GGGAAUGGAUCCACAUCUACGAAUUC…UUCACUGCAGACUUGACGAAGCUG
Outline: (§1)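 Mutagenized RNA pools with a 21-nt variable region (0.43 μM) were reacted with each biotinyl-aminoacyl-oxazolone at 2–1250 μM for 90 minutes at room temperature, in 50 μL HEPES/NaCl/KCl/MgCl2/CaCl2 buffer containing 5% acetonitrile at pH 6.9–7.0. RNA captured on streptavidin was quantified by triplicate qPCR and by Illumina sequencing. The fraction reacted for each sequence was fit to a pseudo-first-order model with bootstrapping, and catalytic enhancement is the median kA divided by the uncatalyzed rate, taken as the low-activity peak of a bimodal Gaussian fit.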

[2] = tested on: biotinyl-Met-oxazolone; test: self-aminoacylation, catalytic enhancement (BMO) (fold over background); higher = more active; k-Seq, kA / k0A0; sequences stand for … in GGGAAUGGAUCCACAUCUACGAAUUC…UUCACUGCAGACUUGACGAAGCUG
Outline: as §1

[3] = tested on: biotinyl-Leu-oxazolone; test: self-aminoacylation, catalytic enhancement (BLO) (fold over background); higher = more active; k-Seq, kA / k0A0; sequences stand for … in GGGAAUGGAUCCACAUCUACGAAUUC…UUCACUGCAGACUUGACGAAGCUG
Outline: as §1

[4] = tested on: biotinyl-Phe-oxazolone; test: self-aminoacylation, catalytic enhancement (BFO) (fold over background); higher = more active; k-Seq, kA / k0A0; sequences stand for … in GGGAAUGGAUCCACAUCUACGAAUUC…UUCACUGCAGACUUGACGAAGCUG
Outline: as §1

[5] = tested on: biotinyl-Ile-oxazolone; test: self-aminoacylation, catalytic enhancement (BIO) (fold over background); higher = more active; k-Seq, kA / k0A0; sequences stand for … in GGGAAUGGAUCCACAUCUACGAAUUC…UUCACUGCAGACUUGACGAAGCUG
Outline: as §1

[6] = tested on: biotinyl-Trp-oxazolone; test: self-aminoacylation, catalytic enhancement (BWO) (fold over background); higher = more active; k-Seq, kA / k0A0; sequences stand for … in GGGAAUGGAUCCACAUCUACGAAUUC…UUCACUGCAGACUUGACGAAGCUG
Outline: as §1

| Sequence | self-aminoacylation [1] | self-aminoacylation [2] | self-aminoacylation [3] | self-aminoacylation [4] | self-aminoacylation [5] | self-aminoacylation [6] |
| --- | --- | --- | --- | --- | --- | --- |
| CUACUUCAAACAAUCGGACUU [Fam1A.1 aminoacylation ribozyme variant] | 0.85 | 0.737 | 0.665 | 1.04 | 0.788 | 1.07 |
| AAGUUUGCUAGUACUCGCAAG [Fam3.1 aminoacylation ribozyme variant] | 0.878 | 0.907 | 0.773 | 0.836 | 0.894 | 0.574 |
| GCACACUUCAAGCAGUCGGUC [Fam1B.1 aminoacylation ribozyme variant] | 1.41 | 1.55 | 1.75 | 1.33 | 1.56 | 1.69 |
| AUUCACCUAGGUCAACGGGUC [Fam2.2 aminoacylation ribozyme variant] | 1.07 | 0.915 | 0.807 | 0.507 | 0.899 | 0.902 |
| GAGUUUGCUAAUAGUCGCAAG [Fam3.1 aminoacylation ribozyme variant] | 1.5 | 1.78 | 1.39 | 22.7 | 1.72 | 7.44 |
| GUUACCCUGGUCAUCGAGUAA [Fam2.1 aminoacylation ribozyme variant] | 7.98 | 22.6 | 21.8 | 93.6 | 6.86 | 18.7 |
| CUACGCUUCAAGCAAUCGGUC [Fam1B.1 aminoacylation ribozyme variant] | 1.06 | 1.14 | 1.86 | 59.9 | 0.964 | 29.9 |
| AUUACCCUGAUCAUAGAGUGA [Fam2.1 aminoacylation ribozyme variant] | 6.89 | 15.8 | 15.1 | 70.5 | 6.32 | 17.7 |
| UUACACUUCAAGCAAUCGGUC [Fam1B.1 aminoacylation ribozyme variant] | 1.14 | 1.26 | 1.5 | 30.4 | 1.25 | 15.7 |
| AUUUACCUAGGCCAUCGGGUG [Fam2.2 aminoacylation ribozyme variant] | 3.2 | 3.07 | 3.95 | 17.4 | 2.47 | 3.98 |
| AUGAACCUGGUCAUCGAGUGA [Fam2.1 aminoacylation ribozyme variant] | 3.17 | 5.7 | 6.61 | 5.16 | 3.31 | 6.4 |
| AAGUUUGCUAAUCGUGGCAAG [Fam3.1 aminoacylation ribozyme variant] | 0.813 | 0.604 | 0.521 | 0.796 | 0.713 | 0.625 |
| AUUCAACUAAGUCAUCGGGUG [Fam2.2 aminoacylation ribozyme variant] | 4.13 | 7.12 | 10.7 | 69.4 | 4.92 | 7.24 |
| CAACCUCAAACAAUCGGUCUG [Fam1A.1 aminoacylation ribozyme variant] | 1.31 | 1.37 | 1.61 | 11.5 | 1.21 | 4.78 |
| AUUCACCUAGAUCAUCGGUUG [Fam2.2 aminoacylation ribozyme variant] | 0.983 | 0.778 | 0.786 | 0.463 | 0.794 | 0.447 |
| CUUGCCCUGGUCAUCGAGUGA [Fam2.1 aminoacylation ribozyme variant] | 7.34 | 15.4 | 14.7 | 64.3 | 6.56 | 16.5 |
| AAGUUUGGUAAUCGUCGCAAG [Fam3.1 aminoacylation ribozyme variant] | 1.32 | 1.49 | 1.33 | 1.07 | 1.39 | 1.52 |
| AUUCACCUCGGUCAUCGGGUA [Fam2.2 aminoacylation ribozyme variant] | 3.25 | 3.24 | 2.87 | 17 | 2.96 | 3.95 |
| ACUACCCUGGUCAUCGCGUGA [Fam2.1 aminoacylation ribozyme variant] | 12.1 | 17.9 | 21.5 | 163 | 8.88 | 19.3 |
| CCAAACUUCAAGCAAUCGGCC [Fam1B.1 aminoacylation ribozyme variant] | 3.04 | 2.21 | 3.45 | 4.84 | 2.38 | 5.38 |
| AGUACCCUGAUCAUCGAGUGA [Fam2.1 aminoacylation ribozyme variant] | 3.5 | 6.82 | 6.72 | 26.6 | 3.22 | 8.64 |
| CUACAUCAAACAAUCGGACUG [Fam1A.1 aminoacylation ribozyme variant] | 0.974 | 0.804 | 0.586 | 1.11 | 1.1 | 0.749 |
| AAUCACCUAGGUCAUUGGGUG [Fam2.2 aminoacylation ribozyme variant] | 2.65 | 2.74 | 3.6 | 13.1 | 2.94 | 4.15 |
| CCACAUUUCAGGCAAUCGGUC [Fam1B.1 aminoacylation ribozyme variant] | 1.93 | 1.58 | 2.2 | 1.92 | 2.2 | 1.59 |
| CUACUACAAACAAUCGUUCUG [Fam1A.1 aminoacylation ribozyme variant] | 0.649 | 0.468 | 0.538 | 0.604 | 0.648 | 0.338 |
| CUACUUGAAACUAUCGGUCUG [Fam1A.1 aminoacylation ribozyme variant] | 0.975 | 0.986 | 0.941 | 0.599 | 1.03 | 0.685 |

| Sequence | self-aminoacylation [1] | self-aminoacylation [2] | self-aminoacylation [3] | self-aminoacylation [4] | self-aminoacylation [5] | self-aminoacylation [6] |
| --- | --- | --- | --- | --- | --- | --- |
| CUACUUCAAACAACCGGUCGG [Fam1A.1 aminoacylation ribozyme variant] | 1.08 | 1.05 | 1.24 | 1.17 | 0.978 | 0.808 |
| AAGUUUGCUAAUAGUCCCAUG [Fam3.1 aminoacylation ribozyme variant] | 1.13 | 0.887 | 0.89 | 0.885 | 0.978 | 1.19 |
| AUUCACCGAGGUCAUCGGAUG [Fam2.2 aminoacylation ribozyme variant] | 1.17 | 1.07 | 1.41 | 0.641 | 1.18 | 1.42 |
| UUUACCCUGGUCAACGAGUGA [Fam2.1 aminoacylation ribozyme variant] | 3.5 | 5.61 | 5.66 | 26.1 | 3 | 8.31 |
| CUACUUGAAACAAUCGGUCUC [Fam1A.1 aminoacylation ribozyme variant] | 0.688 | 0.827 | 0.657 | 0.658 | 0.789 | 0.561 |
| AAUUUUGCUAAUAGUCGUAAG [Fam3.1 aminoacylation ribozyme variant] | 1.44 | 1.11 | 1.31 | 10.9 | 1.42 | 4.02 |
| CCACACUUCAAUCAAUCCGUC [Fam1B.1 aminoacylation ribozyme variant] | 0.823 | 0.641 | 0.61 | 0.663 | 0.655 | 0.611 |
| AUUAACGUAGGUCAUCGGGUG [Fam2.2 aminoacylation ribozyme variant] | 3.05 | 4.05 | 3.84 | 42.1 | 2.52 | 3.61 |
| AAGUUUGCUACUACUCGCAAG [Fam3.1 aminoacylation ribozyme variant] | 0.855 | 0.647 | 0.791 | 0.639 | 0.565 | 0.621 |
| CUACUACAAACGAUCGGUCUG [Fam1A.1 aminoacylation ribozyme variant] | 0.797 | 0.915 | 0.656 | 0.437 | 0.821 | 0.607 |
| CCAGACUUCAAGCAAUCGGUU [Fam1B.1 aminoacylation ribozyme variant] | 2.43 | 2.04 | 2.69 | 7.61 | 2.02 | 6.59 |
| UUUACCCUGGUCAUCGAGUGU [Fam2.1 aminoacylation ribozyme variant] | 26.3 | 82.3 | 71.5 | 542 | 22.7 | 75.4 |
| AAGUUUGCUCAUAGGCGCAAG [Fam3.1 aminoacylation ribozyme variant] | 0.852 | 0.839 | 0.577 | 0.996 | 0.735 | 0.876 |
| CUACUGCAAAAAAUCGGUCUG [Fam1A.1 aminoacylation ribozyme variant] | 0.703 | 0.686 | 0.638 | 0.868 | 0.788 | 0.892 |
| GUUCACCUAGGUCAUCGGUUG [Fam2.2 aminoacylation ribozyme variant] | 1.11 | 1.09 | 1.38 | 2.93 | 1.17 | 1.41 |
| UUUCACCUAGGUUAUCGGGUG [Fam2.2 aminoacylation ribozyme variant] | 2.93 | 3.71 | 3.72 | 19.6 | 2.92 | 4.62 |
| AUUCACCAAGGUCAUCGGGUU [Fam2.2 aminoacylation ribozyme variant] | 2.59 | 2.43 | 2.21 | 17.2 | 2.42 | 4.16 |
| AUUACCCUGGUCAUUGCGUGA [Fam2.1 aminoacylation ribozyme variant] | 7.31 | 15.8 | 18.1 | 108 | 6.44 | 17.1 |
| AUUACCCUGGGCAUCGAGUCA [Fam2.1 aminoacylation ribozyme variant] | 0.768 | 0.719 | 0.72 | 0.615 | 0.946 | 0.708 |
| UUUCACGUAGGUCAUCGGGUG [Fam2.2 aminoacylation ribozyme variant] | 4.25 | 4.24 | 3.88 | 32.2 | 2.89 | 4.06 |
| AAUACCCUGAUCAUCGAGUGA [Fam2.1 aminoacylation ribozyme variant] | 3.21 | 6.32 | 6.22 | 18.6 | 2.79 | 7.59 |
| AAGUUUGCUAAUACUCGCAAA [Fam3.1 aminoacylation ribozyme variant] | 1.05 | 1.22 | 0.837 | 1.26 | 1.2 | 1.71 |
| AUUCACCUAGCUCAUCGAGUG [Fam2.2 aminoacylation ribozyme variant] | 0.791 | 0.652 | 0.548 | 0.417 | 0.7 | 0.394 |
| AAGUUUGCUAAUUGUCCCAAG [Fam3.1 aminoacylation ribozyme variant] | 1.21 | 1.15 | 0.999 | 2.16 | 1.28 | 1.01 |
| AUUUACCUAGGUCAGCGGGUG [Fam2.2 aminoacylation ribozyme variant] | 3.16 | 4.01 | 4.23 | 24.5 | 2.49 | 3.98 |
